The assay addresses T1, PPARβ (Homo sapiens, UniProt Q03181).
T1 construct: expressed in transfected cells; host or cells: CV-1 (African green monkey kidney)
T1 sequence (Q03181 1-441): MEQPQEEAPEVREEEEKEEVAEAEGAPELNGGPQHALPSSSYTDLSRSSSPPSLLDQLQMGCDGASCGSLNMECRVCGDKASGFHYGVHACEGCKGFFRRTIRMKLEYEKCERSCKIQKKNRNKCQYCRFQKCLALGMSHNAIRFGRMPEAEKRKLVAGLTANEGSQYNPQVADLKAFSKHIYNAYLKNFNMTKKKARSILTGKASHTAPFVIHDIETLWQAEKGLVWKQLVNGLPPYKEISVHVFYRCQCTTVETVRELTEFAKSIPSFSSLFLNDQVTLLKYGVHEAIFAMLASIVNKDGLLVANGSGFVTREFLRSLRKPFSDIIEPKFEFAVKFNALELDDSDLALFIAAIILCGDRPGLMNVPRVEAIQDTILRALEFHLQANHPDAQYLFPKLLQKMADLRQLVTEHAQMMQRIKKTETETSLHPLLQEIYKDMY
T1 sequence (P19793 1-462 partner): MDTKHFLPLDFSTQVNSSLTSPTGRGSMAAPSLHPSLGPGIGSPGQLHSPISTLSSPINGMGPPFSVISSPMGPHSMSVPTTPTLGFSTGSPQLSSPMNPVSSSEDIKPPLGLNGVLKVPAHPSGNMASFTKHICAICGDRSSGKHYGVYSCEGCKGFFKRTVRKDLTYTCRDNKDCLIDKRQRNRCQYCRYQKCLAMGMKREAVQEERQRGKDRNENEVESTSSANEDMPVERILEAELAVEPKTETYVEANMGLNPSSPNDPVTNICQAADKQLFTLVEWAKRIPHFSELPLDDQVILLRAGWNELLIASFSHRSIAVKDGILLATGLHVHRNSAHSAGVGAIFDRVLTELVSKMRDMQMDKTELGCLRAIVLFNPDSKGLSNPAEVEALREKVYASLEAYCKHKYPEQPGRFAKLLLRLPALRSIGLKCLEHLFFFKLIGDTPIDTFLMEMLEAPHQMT
The assay can be described thus: Reporter gene assay, ERRγ3 coexisted with PPARβ, pGVP2-PPRE1 in CV-1 cells. The note with it: 10^−5 M carbacyclin, FIG. 24. Format: cell-based. How it is done: Transfection was performed as follows: CV-1 cells were resuspended in DMEM supplemented with 10% fetal bovine serum, 2000 U/l of penicillin G, and 100 mg/l of streptomycin to a concentration of 2×10^5 cells/2.5 ml. This was then seeded to a 6-well plate at 2.5 ml per well, and incubated for 18-24 hours in a CO2 incubator at 37° C. and 5% CO2. 1 μg of each of the expression plasmids for the transcription factors, the luciferase reporter plasmid, and another luciferase reporter plasmid used for normalization of the measured values (pRL-TK), were dissolved in Opti-MEM (Gibco BRL), to a total of 150 μl. […] Luciferase activity was measured using the Dual-Luciferase™ Reporter Assay System (Promega). […] The protocol for measurement was as follows: 50 μl of Luciferase Assay Reagent II was added to each well, stirred for 0.3 seconds, and measured for one second. 50 μl of Stop&Glo™ Reagent was then added, stirred for 0.3 seconds, and measured for one second. The measured values for firefly luciferase activity were corrected by dividing by the value for the Renilla luciferase activity, the internal control. Average values and standard errors were calculated from triplicate samples.
The effect of ligands on the function of ERRγ3 in enhancing the transcriptional activation function of peroxisome proliferator activated receptor (PPAR) α, β, or γ was evaluated using the reporter gene assay (FIG. 24). […]

B1: ERRγ3: novel ERRγ isoform, nuclear receptor protein of 396 amino acids (SEQ ID NO: 2) lacking part of the DNA binding domain (protein, listed as Homo sapiens)
chain: MSNKDRHIDSSCSSFIKTEPSSPASLTDSVNHHSPGGSSDASGSYSSTMNGHQNGLDSPPLYPSAPILGGSGPVRKLYDDCSSTIVEDPQTKCEYMLNSMPKRLCLVCGDIASGYHYGVASCEACKAFFKRTIQGVRLDRVRGGRQKYKRRIDAENSPYLNPQLAQPAKKPYNKIVSHLLVAEPEKIYAMPDPTVPDSDIKALTTLCDLADRELVVIIGWAKHIPGFSTLSLADQMSLLQSAWMEILILGVVYRSLSFEDELVYADDYIMDEDQSKLAGLLDLNNAILQLVKKYKSMKLEKEEFVTLKAIALANSDSMHIEDVEAVQKLQDVLHEALQDYEAGQHMEDPRRAGKMLMTLPLLRQTSTKAVQHFYNIKLEGKVPMHKLFLEMLEAKV
On to B1, for which the “modifying effect on the transcriptional stimulation activity of PPARβ” value was “did not show any significant modifying effect”.

(Values after patent US20060148030A1, “Nuclear receptor err y 3” (FUJISAWA PHARMACEUTICAL CO., LTD, priority 2002, published 2006).)
